Kd data for one substance are collected here from paper PMC12478167.

Assay [1] deals with sLilrB2, a soluble Fc-tagged form of LilrB2 containing the entire extracellular domain (human) (UniProt Q8N423). Nature of the assay: SPR. A general note: Surface plasmon resonance follows binding to a sensor surface in real time, without labels.
For assay [2], the target named is endogenous PirB in mouse cortical neurons (mouse (endogenous in cortical neurons)) (UniProt P97484). In words: immunostaining of cells or tissue.
Assay [3] addresses Myc-tagged LilrB2 expressed in HEK293 cells (human) (UniProt Q8N423). In words: immunostaining of cells or tissue.
For assay [4], the target named is HA-PirB expressed in HEK293 cells (mouse) (UniProt P97484). Nature of the assay: immunostaining of cells or tissue.

For “C4d, terminal split product of complement component C4 (from UniProt P0C0L4 957-1336) (domain or fragment)”, the Kd (commonly the free concentration of one partner at which half of the binding sites on the other are occupied at equilibrium, for simple one-to-one binding) in assay [1] was found to be 3 nM; in assay [2], 380 nM; in assay [3], 37 nM; in assay [4], 56 nM.
